Experimental data reported in article PMC11534217, “Direct activation of HSF1 by macromolecular crowding and misfolded proteins”.

Tests used:
[1] = target: T1, Heat shock factor protein 1 (HSF1), purified recombinant (human), Q00613; assay: native gel or EMSA; Blue native PAGE and western blot of purified HSF1 monomer (5 μM) after mild heat (38°C, 0-600 s; or 37°C, 5 min) with or without BSA as crowder (1-50 mg/ml); conditions: remark: other sources report otherwise
T1 chain: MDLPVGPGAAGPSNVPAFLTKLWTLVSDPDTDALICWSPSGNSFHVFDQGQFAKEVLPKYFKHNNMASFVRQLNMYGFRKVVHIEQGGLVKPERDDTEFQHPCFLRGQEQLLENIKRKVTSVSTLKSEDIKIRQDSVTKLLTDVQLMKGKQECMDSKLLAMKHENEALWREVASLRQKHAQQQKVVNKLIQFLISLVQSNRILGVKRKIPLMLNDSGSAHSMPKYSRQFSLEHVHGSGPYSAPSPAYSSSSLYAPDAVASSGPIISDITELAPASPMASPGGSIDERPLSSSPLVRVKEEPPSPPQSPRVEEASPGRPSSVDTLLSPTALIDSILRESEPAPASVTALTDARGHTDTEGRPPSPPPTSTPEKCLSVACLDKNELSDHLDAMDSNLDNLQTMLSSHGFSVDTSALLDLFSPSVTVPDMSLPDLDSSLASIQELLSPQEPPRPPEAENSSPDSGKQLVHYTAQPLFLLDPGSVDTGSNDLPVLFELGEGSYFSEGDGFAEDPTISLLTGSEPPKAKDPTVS

[2] = target: T1, Heat shock factor protein 1 (HSF1), …; assay: SEC + native gel or EMSA; trimer fraction of purified HSF1 from the same SEC, then Blue native PAGE and western blot; conditions: remark: other sources report otherwise
[3] = target: T2, mCherry-HSF1 (human), Q00613; assay: native gel or EMSA; high resolution clear native electrophoresis (HR CNE) of lysates of H1299 cells with fluorescent HSF1 fusion, fluorescence scan; cells treated with sorbitol, 42°C heat shock, bortezomib or AUY-922; conditions: remark: other sources report otherwise
T2 chain: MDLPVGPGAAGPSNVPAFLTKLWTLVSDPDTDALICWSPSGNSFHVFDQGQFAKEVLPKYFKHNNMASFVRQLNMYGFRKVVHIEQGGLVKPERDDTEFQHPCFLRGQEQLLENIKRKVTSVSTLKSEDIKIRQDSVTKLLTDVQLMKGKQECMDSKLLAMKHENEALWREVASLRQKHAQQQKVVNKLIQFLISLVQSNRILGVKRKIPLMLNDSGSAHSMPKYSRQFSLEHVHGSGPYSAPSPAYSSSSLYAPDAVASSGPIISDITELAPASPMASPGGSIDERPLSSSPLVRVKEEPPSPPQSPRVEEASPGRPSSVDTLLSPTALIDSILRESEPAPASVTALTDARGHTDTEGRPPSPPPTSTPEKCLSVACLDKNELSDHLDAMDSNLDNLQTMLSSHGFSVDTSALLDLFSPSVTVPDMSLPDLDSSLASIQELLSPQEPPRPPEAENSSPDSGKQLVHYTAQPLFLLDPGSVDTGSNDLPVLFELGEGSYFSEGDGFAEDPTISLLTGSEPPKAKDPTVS

[4] = target: T3, GFP-HSF1 (human), Q00613; assay: as above; conditions: remark: other sources report otherwise
T3 chain: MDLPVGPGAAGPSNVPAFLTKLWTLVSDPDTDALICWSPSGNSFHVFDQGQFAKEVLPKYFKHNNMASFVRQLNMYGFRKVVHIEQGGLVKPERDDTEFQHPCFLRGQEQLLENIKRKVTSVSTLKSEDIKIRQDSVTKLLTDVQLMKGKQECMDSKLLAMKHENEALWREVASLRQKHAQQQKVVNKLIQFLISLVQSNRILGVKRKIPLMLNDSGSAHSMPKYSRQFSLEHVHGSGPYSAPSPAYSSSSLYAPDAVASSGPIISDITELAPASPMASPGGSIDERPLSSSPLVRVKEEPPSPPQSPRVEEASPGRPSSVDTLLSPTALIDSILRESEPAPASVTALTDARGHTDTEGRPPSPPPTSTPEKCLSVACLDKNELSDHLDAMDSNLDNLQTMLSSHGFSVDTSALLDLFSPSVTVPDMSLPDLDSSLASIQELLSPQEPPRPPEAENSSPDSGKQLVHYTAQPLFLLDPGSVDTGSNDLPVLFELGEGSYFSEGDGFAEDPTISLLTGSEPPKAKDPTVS

[5] = target: T4, HSF1, endogenous in H1299 cells (human (endogenous in H1299)), Q00613; assay: cross-linking; 2 mM DSBU added to the lysate of H1299 cells for 30 minutes, SDS-PAGE, blot with anti-HSF1 c-5; cells treated with AUY-922 (0-200 nM, 2 h) after mTOR inhibitors BEZ-235 or rapamycin (100 nM, 8 h); conditions: remark: other sources report otherwise
T4 chain: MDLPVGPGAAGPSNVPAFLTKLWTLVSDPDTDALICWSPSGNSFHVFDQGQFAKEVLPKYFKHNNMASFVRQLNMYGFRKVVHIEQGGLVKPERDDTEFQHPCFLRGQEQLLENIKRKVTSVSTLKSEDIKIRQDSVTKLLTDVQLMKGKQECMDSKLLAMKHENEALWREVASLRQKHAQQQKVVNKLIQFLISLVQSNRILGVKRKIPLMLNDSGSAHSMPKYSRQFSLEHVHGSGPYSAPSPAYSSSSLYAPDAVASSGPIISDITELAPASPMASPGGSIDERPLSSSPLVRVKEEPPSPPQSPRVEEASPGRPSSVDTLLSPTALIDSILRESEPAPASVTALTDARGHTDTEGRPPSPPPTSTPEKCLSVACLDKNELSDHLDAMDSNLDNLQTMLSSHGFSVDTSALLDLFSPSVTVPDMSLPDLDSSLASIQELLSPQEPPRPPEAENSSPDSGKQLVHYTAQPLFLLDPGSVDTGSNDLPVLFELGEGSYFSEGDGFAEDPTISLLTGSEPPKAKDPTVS

[6] = target: HSF1 monomer (SEC-purified) (human (Homo sapiens), UniProt Q00613 1-529); assay: fluorescence polarization; after heat shock (+HS); binding enhanced; FP: 30 nM DNA, 150 mM NaCl, 50 mM HEPES pH 7.2, 1 mM DTT, 0.05% Tween-20, 25 C; EMSA: 200 nM HSF1, 100 nM DNA, 25 mM HEPES pH 7.4, 150 mM NaCl, 10% glycerol, 3; conditions: protein: recombinant; tags: N-terminal His6-TEV, cleaved by TEV before assay; chain copies: 3; label: 5' FAM on printed strand; described as double-stranded

B1: Heat shock factor protein 1 (HSF1), purified recombinant, Q00613-1 1-529 (natural protein)
chain: MDLPVGPGAAGPSNVPAFLTKLWTLVSDPDTDALICWSPSGNSFHVFDQGQFAKEVLPKYFKHNNMASFVRQLNMYGFRKVVHIEQGGLVKPERDDTEFQHPCFLRGQEQLLENIKRKVTSVSTLKSEDIKIRQDSVTKLLTDVQLMKGKQECMDSKLLAMKHENEALWREVASLRQKHAQQQKVVNKLIQFLISLVQSNRILGVKRKIPLMLNDSGSAHSMPKYSRQFSLEHVHGSGPYSAPSPAYSSSSLYAPDAVASSGPIISDITELAPASPMASPGGSIDERPLSSSPLVRVKEEPPSPPQSPRVEEASPGRPSSVDTLLSPTALIDSILRESEPAPASVTALTDARGHTDTEGRPPSPPPTSTPEKCLSVACLDKNELSDHLDAMDSNLDNLQTMLSSHGFSVDTSALLDLFSPSVTVPDMSLPDLDSSLASIQELLSPQEPPRPPEAENSSPDSGKQLVHYTAQPLFLLDPGSVDTGSNDLPVLFELGEGSYFSEGDGFAEDPTISLLTGSEPPKAKDPTVS
stoichiometry N [1]: 3 | stoichiometry N [2]: 3

B2: mCherry-HSF1, Q00613-1 1-529 (natural protein)
chain: MDLPVGPGAAGPSNVPAFLTKLWTLVSDPDTDALICWSPSGNSFHVFDQGQFAKEVLPKYFKHNNMASFVRQLNMYGFRKVVHIEQGGLVKPERDDTEFQHPCFLRGQEQLLENIKRKVTSVSTLKSEDIKIRQDSVTKLLTDVQLMKGKQECMDSKLLAMKHENEALWREVASLRQKHAQQQKVVNKLIQFLISLVQSNRILGVKRKIPLMLNDSGSAHSMPKYSRQFSLEHVHGSGPYSAPSPAYSSSSLYAPDAVASSGPIISDITELAPASPMASPGGSIDERPLSSSPLVRVKEEPPSPPQSPRVEEASPGRPSSVDTLLSPTALIDSILRESEPAPASVTALTDARGHTDTEGRPPSPPPTSTPEKCLSVACLDKNELSDHLDAMDSNLDNLQTMLSSHGFSVDTSALLDLFSPSVTVPDMSLPDLDSSLASIQELLSPQEPPRPPEAENSSPDSGKQLVHYTAQPLFLLDPGSVDTGSNDLPVLFELGEGSYFSEGDGFAEDPTISLLTGSEPPKAKDPTVS
stoichiometry N [3]: 3

B3: GFP-HSF1, Q00613 1-529 (natural protein)
chain: MDLPVGPGAAGPSNVPAFLTKLWTLVSDPDTDALICWSPSGNSFHVFDQGQFAKEVLPKYFKHNNMASFVRQLNMYGFRKVVHIEQGGLVKPERDDTEFQHPCFLRGQEQLLENIKRKVTSVSTLKSEDIKIRQDSVTKLLTDVQLMKGKQECMDSKLLAMKHENEALWREVASLRQKHAQQQKVVNKLIQFLISLVQSNRILGVKRKIPLMLNDSGSAHSMPKYSRQFSLEHVHGSGPYSAPSPAYSSSSLYAPDAVASSGPIISDITELAPASPMASPGGSIDERPLSSSPLVRVKEEPPSPPQSPRVEEASPGRPSSVDTLLSPTALIDSILRESEPAPASVTALTDARGHTDTEGRPPSPPPTSTPEKCLSVACLDKNELSDHLDAMDSNLDNLQTMLSSHGFSVDTSALLDLFSPSVTVPDMSLPDLDSSLASIQELLSPQEPPRPPEAENSSPDSGKQLVHYTAQPLFLLDPGSVDTGSNDLPVLFELGEGSYFSEGDGFAEDPTISLLTGSEPPKAKDPTVS
stoichiometry N [4]: 3

B4: HSF1, endogenous in H1299 cells, Q00613 1-529 (natural protein)
chain: MDLPVGPGAAGPSNVPAFLTKLWTLVSDPDTDALICWSPSGNSFHVFDQGQFAKEVLPKYFKHNNMASFVRQLNMYGFRKVVHIEQGGLVKPERDDTEFQHPCFLRGQEQLLENIKRKVTSVSTLKSEDIKIRQDSVTKLLTDVQLMKGKQECMDSKLLAMKHENEALWREVASLRQKHAQQQKVVNKLIQFLISLVQSNRILGVKRKIPLMLNDSGSAHSMPKYSRQFSLEHVHGSGPYSAPSPAYSSSSLYAPDAVASSGPIISDITELAPASPMASPGGSIDERPLSSSPLVRVKEEPPSPPQSPRVEEASPGRPSSVDTLLSPTALIDSILRESEPAPASVTALTDARGHTDTEGRPPSPPPTSTPEKCLSVACLDKNELSDHLDAMDSNLDNLQTMLSSHGFSVDTSALLDLFSPSVTVPDMSLPDLDSSLASIQELLSPQEPPRPPEAENSSPDSGKQLVHYTAQPLFLLDPGSVDTGSNDLPVLFELGEGSYFSEGDGFAEDPTISLLTGSEPPKAKDPTVS
stoichiometry N [5]: 3

B5: FAM-HSE (dsDNA)
DNA 1: CCCCTTCCCGAATATTCCCCC
DNA 2: GGGGGAATATTCGGGAAGGGG
binding result [6]: binds
